# Experimental data from patent publication US20090291885A1.
# Like-named read-outs stand apart in the source and are kept apart here. Ends that are not written are not given here.
# B1: 20K PEG-ShK[1-35] (peptide)
# peptide: RSCIDTIPKSRCTAFQCKHSMKYRLSFCRKTCGTC
# modifications: not fully specified; ends and bridges not checked
# Columns and labels:
# Assay in all cases: cell-based or functional assay
# [1] = target: human Kv1.3 voltage-gated potassium channel (human) (UniProt P22001)
# [2] = target: human Kv1.3 channel (human) (UniProt P22001)
# [3] = target: human Kv1.1 channel (human) (UniProt Q09470)
# [4] = target: human Kv1.3 channel (human) (UniProt P22001); remark: listed apart in the source
# Sequence of human Kv1.3 channel (human) (P22001 whole entry): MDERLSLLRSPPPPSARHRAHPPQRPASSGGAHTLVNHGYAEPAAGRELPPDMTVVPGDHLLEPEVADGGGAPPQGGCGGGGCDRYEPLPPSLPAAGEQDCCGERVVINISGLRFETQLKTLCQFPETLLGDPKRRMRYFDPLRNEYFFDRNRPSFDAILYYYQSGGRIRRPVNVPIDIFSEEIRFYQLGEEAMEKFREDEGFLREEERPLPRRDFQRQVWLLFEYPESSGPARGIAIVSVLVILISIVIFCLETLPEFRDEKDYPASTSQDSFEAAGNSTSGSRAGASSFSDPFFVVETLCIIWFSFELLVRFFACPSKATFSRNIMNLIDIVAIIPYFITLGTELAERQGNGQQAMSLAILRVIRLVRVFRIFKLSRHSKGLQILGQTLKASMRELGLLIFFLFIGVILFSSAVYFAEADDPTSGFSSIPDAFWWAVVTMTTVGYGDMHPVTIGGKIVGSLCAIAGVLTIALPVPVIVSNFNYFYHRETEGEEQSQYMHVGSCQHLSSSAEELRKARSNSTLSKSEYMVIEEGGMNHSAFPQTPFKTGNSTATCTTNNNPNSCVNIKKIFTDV
# Sequence of human Kv1.3 voltage-gated potassium channel (human) (P22001 whole entry): as above
# Sequence of human Kv1.1 channel (human) (Q09470 whole entry): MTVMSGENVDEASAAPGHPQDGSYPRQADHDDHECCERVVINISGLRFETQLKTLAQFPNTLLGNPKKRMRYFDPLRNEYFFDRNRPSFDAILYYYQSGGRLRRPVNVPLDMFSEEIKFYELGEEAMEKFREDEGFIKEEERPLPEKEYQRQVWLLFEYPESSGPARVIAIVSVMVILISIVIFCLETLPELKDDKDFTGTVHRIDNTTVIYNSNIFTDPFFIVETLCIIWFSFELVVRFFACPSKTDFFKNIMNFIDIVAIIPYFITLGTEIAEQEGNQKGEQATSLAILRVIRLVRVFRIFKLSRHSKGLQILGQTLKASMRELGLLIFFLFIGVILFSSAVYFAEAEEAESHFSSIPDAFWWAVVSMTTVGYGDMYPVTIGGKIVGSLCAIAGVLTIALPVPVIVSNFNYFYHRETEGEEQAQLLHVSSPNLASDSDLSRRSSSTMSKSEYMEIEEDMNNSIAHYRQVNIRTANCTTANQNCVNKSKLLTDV
molecule,measurement,setting,value
20k PEG-ShK (peptide),"WB/IFNg (IC50, nM)",[1],0.065 nM
same,"WB/IL-2 (IC50, nM)",[1],0.046 nM
E. coli-derived Fc-L-OSK1 (Fc fusion),Kv1.3 IC50 by WCVC,[2],3.2 nM
E. coli-derived Fc-L-ShK[1-35] (Fc fusion),Kv1.3 IC50 by WCVC,[2],1.4 nM
E. coli-derived Fc-L-ShK[2-35] (Fc fusion),Kv1.3 IC50 by IWQ,[2],2.8 nM
same,Kv1.3 IC50 by WCVC,[2],1.3 nM
E. coli-derived ShK[2-35]-L-Fc (Fc fusion),Kv1.3 IC50 by IWQ,[2],4.9 nM
E. coli-derived Shk[1-35]-L-Fc (Fc fusion),Kv1.3 IC50 by IWQ,[2],2.4 nM
Fc-L10-OSK1 (Fc fusion),fold loss of potency in Kv1.3 current block against synthetic OSK1,[2],5 fold
Fc-L25-ShK[2-35] (Fc fusion),"IC50, whole cell patch clamp electrophysiology on HEK293/Kv1.3 cells",[2],150 pM
GGGGS-Osk1 (peptide),WB/IFNg IC50,[2],2.2 nM
same,WB/IL-2 IC50,[2],1.36 nM
OSK1 (wild-type) (peptide),"Kv1.1 IC50, whole cell patch clamp",[3],0.202 nM
same,"Kv1.3 IC50, whole cell patch clamp",[2],0.039 nM
same,Kv1.3 Selectivity (= Kv1.1/Kv.3 IC50),[2],5 fold
PEG-OSK1 (peptide),"peak IC50, whole cell patch clamp on HEK293 cells stably expressing human Kv1.3",[2],1.28 nM
Synthetic OSK1 (peptide),hKv1.1: IC50 [pM],[3],160 pM
same,hKv1.1/hKv1.3 (selectivity ratio of the IC50s),[2],4 fold
same,hKv1.3: IC50 [pM],[2],39 pM
B1,"peak IC50, whole cell patch clamp on HEK293 cells stably expressing human Kv1.3",[4],0.169 nM
